Molecular target: T1, EnrR (crystal) (Edwardsiella piscicida EIB202, UniProt A0AAQ3C0I8 1-90)
T1 sequence: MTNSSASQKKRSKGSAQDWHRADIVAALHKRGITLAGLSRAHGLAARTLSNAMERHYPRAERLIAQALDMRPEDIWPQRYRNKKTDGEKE
Test: X-ray crystallography

B1: DNA1 (dsDNA)
DNA 1: CGAAATATCTATAGATATTTCG
DNA 2: CGAAATATCTATAGATATTTCG
binding result: binds
